# B1: ABCA7, Q8IZY2 (peptide)
# chain: DDPSTAETVL
# Target: PTPN3, P26045
# Test: holdup assay
# Parameters: key: below the threshold = too weak to quantify, mostly under pKd 3.1 to 4
# Details: plain residues with an end cap or a label only (N-terminal biotin on a linker: ado-ado)
# PTPN3, P26045, sequence (P26045 505-587): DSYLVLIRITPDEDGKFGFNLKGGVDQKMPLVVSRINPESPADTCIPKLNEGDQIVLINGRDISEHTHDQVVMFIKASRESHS
row,Binder,pKd
1,B1,4.83

# Target: T1, RAPGEF6, Q8TEU7
# T1 sequence (Q8TEU7 525-625, limits assumed, looked up): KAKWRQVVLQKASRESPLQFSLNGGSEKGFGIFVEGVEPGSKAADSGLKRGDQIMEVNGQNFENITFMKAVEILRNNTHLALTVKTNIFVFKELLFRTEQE
# Test: holdup assay
# Parameters: key: below the threshold = too weak to quantify, mostly under pKd 3.1 to 4
# Details: plain residues with an end cap or a label only (N-terminal biotin on a linker: ado-ado)
row,Binder,pKd
1,B1,below the threshold

# Target: T2, CARD11, Q9BXL7
# T2 sequence (Q9BXL7 662-765, limits assumed, looked up): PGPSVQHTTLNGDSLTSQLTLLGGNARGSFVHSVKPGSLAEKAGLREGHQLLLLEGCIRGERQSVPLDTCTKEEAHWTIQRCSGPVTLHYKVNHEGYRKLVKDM
# Test: holdup assay
# Parameters: key: below the threshold = too weak to quantify, mostly under pKd 3.1 to 4
# Details: plain residues with an end cap or a label only (N-terminal biotin on a linker: ado-ado)
row,Binder,pKd
1,B1,below the threshold

# Target: MAGI2_6, Q86UL8
# Test: holdup assay
# Parameters: key: below the threshold = too weak to quantify, mostly under pKd 3.1 to 4
# Details: plain residues with an end cap or a label only (N-terminal biotin on a linker: ado-ado)
# MAGI2_6, Q86UL8, sequence (Q86UL8 1141-1229): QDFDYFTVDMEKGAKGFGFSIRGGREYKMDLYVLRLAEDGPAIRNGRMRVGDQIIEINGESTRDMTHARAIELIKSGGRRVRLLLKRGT
row,Binder,pKd
1,B1,3.83

# Target: NHERF4_2, Q86UT5
# Test: holdup assay
# Parameters: key: below the threshold = too weak to quantify, mostly under pKd 3.1 to 4
# Details: plain residues with an end cap or a label only (N-terminal biotin on a linker: ado-ado)
# NHERF4_2, Q86UT5, sequence (Q86UT5 220-308): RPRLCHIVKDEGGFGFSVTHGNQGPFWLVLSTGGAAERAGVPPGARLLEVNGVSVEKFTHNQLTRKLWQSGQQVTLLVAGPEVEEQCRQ
row,Binder,pKd
1,B1,below the threshold

# Target: T3, APBA2_2, Q99767
# T3 sequence (Q99767 654-744, limits assumed, looked up): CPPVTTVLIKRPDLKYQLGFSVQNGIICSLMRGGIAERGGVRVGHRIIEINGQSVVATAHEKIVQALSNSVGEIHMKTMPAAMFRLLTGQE
# Test: holdup assay
# Parameters: key: below the threshold = too weak to quantify, mostly under pKd 3.1 to 4
# Details: plain residues with an end cap or a label only (N-terminal biotin on a linker: ado-ado)
row,Binder,pKd
1,B1,below the threshold

# Target: T4, SNTB1, Q13884
# T4 sequence (Q13884 107-205, limits assumed, looked up): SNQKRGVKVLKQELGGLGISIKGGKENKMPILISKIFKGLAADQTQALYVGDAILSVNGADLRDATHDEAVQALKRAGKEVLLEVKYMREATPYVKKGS
# Test: holdup assay
# Parameters: key: below the threshold = too weak to quantify, mostly under pKd 3.1 to 4
# Details: plain residues with an end cap or a label only (N-terminal biotin on a linker: ado-ado)
row,Binder,pKd
1,B1,4.87

# Target: GIPC2, Q8TF65
# Test: holdup assay
# Parameters: key: below the threshold = too weak to quantify, mostly under pKd 3.1 to 4
# Details: plain residues with an end cap or a label only (N-terminal biotin on a linker: ado-ado)
# GIPC2, Q8TF65, sequence (Q8TF65 112-203): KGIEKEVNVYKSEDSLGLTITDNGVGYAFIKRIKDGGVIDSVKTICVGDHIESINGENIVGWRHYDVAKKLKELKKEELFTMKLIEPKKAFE
row,Binder,pKd
1,B1,below the threshold

# Target: T5, SNTG1, Q9NSN8
# T5 sequence (Q9NSN8 52-150, limits assumed, looked up): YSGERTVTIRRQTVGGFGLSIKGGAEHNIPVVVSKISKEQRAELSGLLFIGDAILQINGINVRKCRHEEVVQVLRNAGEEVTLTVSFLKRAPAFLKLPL
# Test: holdup assay
# Parameters: key: below the threshold = too weak to quantify, mostly under pKd 3.1 to 4
# Details: plain residues with an end cap or a label only (N-terminal biotin on a linker: ado-ado)
row,Binder,pKd
1,B1,3.66

# Target: T6, DFNB31_1, Q9P202
# T6 sequence (Q9P202 135-233, limits assumed, looked up): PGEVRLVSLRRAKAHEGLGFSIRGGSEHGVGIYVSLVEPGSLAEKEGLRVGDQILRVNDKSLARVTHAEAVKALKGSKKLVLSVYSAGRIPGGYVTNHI
# Test: holdup assay
# Parameters: key: below the threshold = too weak to quantify, mostly under pKd 3.1 to 4
# Details: plain residues with an end cap or a label only (N-terminal biotin on a linker: ado-ado)
row,Binder,pKd
1,B1,below the threshold

# Target: PICK1, Q9NRD5
# Test: holdup assay
# Parameters: key: below the threshold = too weak to quantify, mostly under pKd 3.1 to 4
# Details: plain residues with an end cap or a label only (N-terminal biotin on a linker: ado-ado)
# PICK1, Q9NRD5, sequence (Q9NRD5 17-115): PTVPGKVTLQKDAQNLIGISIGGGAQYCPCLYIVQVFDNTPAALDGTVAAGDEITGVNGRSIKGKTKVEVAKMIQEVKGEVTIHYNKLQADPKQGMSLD
row,Binder,pKd
1,B1,below the threshold

# Target: SNX27, Q96L92
# Test: holdup assay
# Parameters: key: below the threshold = too weak to quantify, mostly under pKd 3.1 to 4
# Details: plain residues with an end cap or a label only (N-terminal biotin on a linker: ado-ado)
row,Binder,pKd
1,B1,5.6

# Target: FRMPD4, Q14CM0
# Test: holdup assay
# Parameters: key: below the threshold = too weak to quantify, mostly under pKd 3.1 to 4
# Details: plain residues with an end cap or a label only (N-terminal biotin on a linker: ado-ado)
# FRMPD4, Q14CM0, sequence (Q14CM0 67-160): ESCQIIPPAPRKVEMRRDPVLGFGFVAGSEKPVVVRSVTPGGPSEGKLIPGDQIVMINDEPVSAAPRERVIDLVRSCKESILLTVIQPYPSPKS
row,Binder,pKd
1,B1,4.1

# Target: T7, HTRA3, P83110
# T7 sequence (P83110 354-453, limits assumed, looked up): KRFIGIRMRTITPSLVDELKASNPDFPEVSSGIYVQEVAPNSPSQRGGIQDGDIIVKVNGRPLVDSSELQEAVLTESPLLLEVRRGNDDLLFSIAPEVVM
# Test: holdup assay
# Parameters: key: below the threshold = too weak to quantify, mostly under pKd 3.1 to 4
# Details: plain residues with an end cap or a label only (N-terminal biotin on a linker: ado-ado)
row,Binder,pKd
1,B1,below the threshold

# Target: Inadl_4, Q8NI35
# Test: holdup assay
# Parameters: key: below the threshold = too weak to quantify, mostly under pKd 3.1 to 4
# Details: plain residues with an end cap or a label only (N-terminal biotin on a linker: ado-ado)
# Inadl_4, Q8NI35, sequence (Q8NI35 547-651): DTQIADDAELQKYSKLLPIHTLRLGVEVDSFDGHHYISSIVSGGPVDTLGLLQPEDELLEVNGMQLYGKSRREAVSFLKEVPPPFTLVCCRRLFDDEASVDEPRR
row,Binder,pKd
1,B1,below the threshold

# Target: T8, TJP3_3, O95049
# T8 sequence (O95049 375-456, limits assumed, looked up): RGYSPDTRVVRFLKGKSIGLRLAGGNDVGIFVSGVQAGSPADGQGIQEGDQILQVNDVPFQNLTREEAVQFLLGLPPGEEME
# Test: holdup assay
# Parameters: key: below the threshold = too weak to quantify, mostly under pKd 3.1 to 4
# Details: plain residues with an end cap or a label only (N-terminal biotin on a linker: ado-ado)
row,Binder,pKd
1,B1,below the threshold

# Target: IL16_3, Q14005
# Test: holdup assay
# Parameters: key: below the threshold = too weak to quantify, mostly under pKd 3.1 to 4
# Details: plain residues with an end cap or a label only (N-terminal biotin on a linker: ado-ado)
# IL16_3, Q14005, sequence (Q14005 1107-1207): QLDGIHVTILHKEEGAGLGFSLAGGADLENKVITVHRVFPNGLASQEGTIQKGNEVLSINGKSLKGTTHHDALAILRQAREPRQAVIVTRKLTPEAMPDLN
row,Binder,pKd
1,B1,below the threshold

# Target: T9, LNX2_2, Q8N448
# T9 sequence (Q8N448 334-432, limits assumed, looked up): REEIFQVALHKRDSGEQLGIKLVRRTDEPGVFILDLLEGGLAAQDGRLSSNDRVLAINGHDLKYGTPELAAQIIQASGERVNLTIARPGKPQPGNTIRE
# Test: holdup assay
# Parameters: key: below the threshold = too weak to quantify, mostly under pKd 3.1 to 4
# Details: plain residues with an end cap or a label only (N-terminal biotin on a linker: ado-ado)
row,Binder,pKd
1,B1,below the threshold

# Target: Inadl_10, Q8NI35
# Test: holdup assay
# Parameters: key: below the threshold = too weak to quantify, mostly under pKd 3.1 to 4
# Details: plain residues with an end cap or a label only (N-terminal biotin on a linker: ado-ado)
# Inadl_10, Q8NI35, sequence (Q8NI35 1673-1763): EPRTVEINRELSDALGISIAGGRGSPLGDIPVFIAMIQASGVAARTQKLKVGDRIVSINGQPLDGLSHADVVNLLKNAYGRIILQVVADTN
row,Binder,pKd
1,B1,below the threshold

# Target: T10, DFNB31_3, Q9P202
# T10 sequence (Q9P202 811-907, limits assumed, looked up): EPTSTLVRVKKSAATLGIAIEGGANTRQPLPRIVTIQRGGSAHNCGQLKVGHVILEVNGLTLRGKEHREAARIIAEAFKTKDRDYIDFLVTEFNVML
# Test: holdup assay
# Parameters: key: below the threshold = too weak to quantify, mostly under pKd 3.1 to 4
# Details: plain residues with an end cap or a label only (N-terminal biotin on a linker: ado-ado)
row,Binder,pKd
1,B1,3.63

# Target: T11, DFNB31_2, Q9P202
# T11 sequence (Q9P202 274-371, limits assumed, looked up): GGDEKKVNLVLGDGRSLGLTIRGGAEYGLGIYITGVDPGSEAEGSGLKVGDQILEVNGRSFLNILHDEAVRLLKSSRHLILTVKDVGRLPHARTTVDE
# Test: holdup assay
# Parameters: key: below the threshold = too weak to quantify, mostly under pKd 3.1 to 4
# Details: plain residues with an end cap or a label only (N-terminal biotin on a linker: ado-ado)
row,Binder,pKd
1,B1,below the threshold

# Target: SCRIB_1, Q14160
# Test: holdup assay
# Parameters: key: below the threshold = too weak to quantify, mostly under pKd 3.1 to 4
# Details: plain residues with an end cap or a label only (N-terminal biotin on a linker: ado-ado)
# SCRIB_1, Q14160, sequence (Q14160 718-814): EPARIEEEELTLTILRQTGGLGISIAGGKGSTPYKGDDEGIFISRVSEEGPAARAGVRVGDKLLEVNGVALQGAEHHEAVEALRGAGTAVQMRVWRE
row,Binder,pKd
1,B1,4.37

# Target: T12, MPDZ_12, O75970
# T12 sequence (O75970 1857-1958, limits assumed, looked up): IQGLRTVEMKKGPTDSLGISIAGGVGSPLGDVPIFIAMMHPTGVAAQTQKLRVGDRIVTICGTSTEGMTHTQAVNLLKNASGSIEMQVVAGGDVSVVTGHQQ
# Test: holdup assay
# Parameters: key: below the threshold = too weak to quantify, mostly under pKd 3.1 to 4
# Details: plain residues with an end cap or a label only (N-terminal biotin on a linker: ado-ado)
row,Binder,pKd
1,B1,below the threshold

# Target: NOS1, P29475
# Test: holdup assay
# Parameters: key: below the threshold = too weak to quantify, mostly under pKd 3.1 to 4
# Details: plain residues with an end cap or a label only (N-terminal biotin on a linker: ado-ado)
# NOS1, P29475, sequence (P29475 9-101): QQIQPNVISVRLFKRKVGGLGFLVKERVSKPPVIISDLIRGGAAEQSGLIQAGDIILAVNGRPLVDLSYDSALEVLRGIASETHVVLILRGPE
row,Binder,pKd
1,B1,3.52

# Target: T13, ARHGAP21, Q5T5U3
# T13 sequence (Q5T5U3 45-169, limits assumed, looked up): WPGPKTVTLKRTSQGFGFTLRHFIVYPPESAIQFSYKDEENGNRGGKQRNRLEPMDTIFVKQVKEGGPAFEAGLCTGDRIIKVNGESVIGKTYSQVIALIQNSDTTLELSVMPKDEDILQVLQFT
# Test: holdup assay
# Parameters: key: below the threshold = too weak to quantify, mostly under pKd 3.1 to 4
# Details: plain residues with an end cap or a label only (N-terminal biotin on a linker: ado-ado)
row,Binder,pKd
1,B1,3.8

# Source: paper PMC9482650, “Quantitative fragmentomics allow affinity mapping of interactomes” (Nature Communications, 2022)
